Broadly, the IC50 is the point on the concentration scale where inhibition reaches its midpoint. Lower therefore signals higher potency. For orientation: EC50 means the concentration at which the effect is half-maximal. Low values mean greater potency, high ones weaker potency.

Like-named read-outs stand apart in the source and are kept apart here.

The test system of assay [1] is advanced gynecological cancers. Particulars: patients with high expression of DKK1, stage 2 clinical; cited from earlier work.
A further assay concerns A549 cells. Nature of the assay: A549 subcutaneous transplantation tumor model in CB17/SCID female mice. The format is in vivo. Particulars: day 35 after tumor inoculation; 5 mg/kg intraperitoneal once per week for 4 weeks. The procedure: The experimental animals were CB17/SCID female mice, and A549 cells (5× 10^6) were subcutaneously inoculated into the mice to establish a subcutaneous transplantation tumor model. […] The groups each had 6 animals, and the animals in all the groups were subjected to intraperitoneal injection. […] The efficacy was evaluated based on tumor growth inhibition (TGI) (FIG. 9).

Assay [2] deals with T1, human DKK1 antigen (Sino Biological, 10170-H08H) (human, UniProt O94907 32-266).
T1 chain: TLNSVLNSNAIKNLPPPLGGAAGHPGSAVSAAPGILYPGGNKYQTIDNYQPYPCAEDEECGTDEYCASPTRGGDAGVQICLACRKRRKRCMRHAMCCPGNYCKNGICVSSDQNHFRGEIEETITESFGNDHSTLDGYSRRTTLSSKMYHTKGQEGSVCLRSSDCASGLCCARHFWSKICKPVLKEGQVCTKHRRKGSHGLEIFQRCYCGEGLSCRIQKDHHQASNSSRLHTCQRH
Nature of the assay: ELISA blocking of DKK1-LRP6. For orientation: An ELISA detects its analyte on a solid surface through an enzyme-linked reagent.

Assay [3] has as its target T1, human DKK1 antigen (Sino Biological, …). Put plainly: ELISA binding; given as IC50; FIG. 4A.
For assay [4] the target is unchanged. Put plainly: ELISA binding; FIG. 4B.
Assay [5] has the same target. Put plainly: ELISA blocking of DKK1-LRP6.

“DKN-01: positive control anti-DKK1 monoclonal antibody; heavy and light chains SEQ ID NO: 108 and SEQ ID NO: 109”: in assay [1], the disease control rate is reported as 57% and the objective remission rate is 14%. In the assay on A549 cells, the “tumor growth inhibition (TGI)” value is 23.27%.

B1: DKN-01 (antibody, V domains shown)
VH: EVQLVESGGGLVQPGGSLRLSCAASGFTFSSYTMSWVRQAPGKGLEWVATISGGGFGTYYPDSVKGRFTISRDNAKNSLYLQMNSLRAEDTAVYYCARPGYNNYYFDIWGQGTTVTVSS
VL: EIVLTQSPATLSLSPGERATLSCHASDSISNSLHWYQQKPGQAPRLLIYYARQSIQGIPARFSGSGSGTDFTLTISSLEPEDFAVYYCQQSESWPLHFGGGTKVEIKR
For B1, the half-maximal inhibitory concentration (IC50) is 0.324 µg/mL in assay [2] and 1.24 µg/mL in assay [5]. In addition, the concentration for a half-maximal effect (EC50) amounted to 0.0148 µg/mL in assay [3] and 0.0154 µg/mL in assay [4].

(Values after US20250122271A1, “ANTI-DKK1 ANTIBODY, PHARMACEUTICAL COMPOSITION THEREOF, AND USE THEREOF” (SHANGHAI JUNSHI BIOSCIENCES CO., LTD., priority 2022, published 2025).)
